# B1: D2-57 IgG1 (antibody, V domains shown)
# VH: EVQLLESGGGLVQPGGSLRLSCAASGFTFSRYVMWWVRQAPGKGLEWVSYIWPSGGNTYYADSVKGRFTISRDNSKNTLYLQMNSLRAEDTAVYYCASSYDFWSNAFDIWGQGTMVTVSS
# VL: DIQMTQSPSSLSASVGDRVTITCRASQSIGSYLNWYQQKTGKAPKALIYAASSLQSGVPSRFSGSGSGTDFTLTISSLQLEDFATYYCQQSYSTPSFGQGTKVEIKR
# B2: DX-2001 (germlined variant of D2-57, IgG4) (antibody, V domains shown)
# VH: B1 VH
# VL: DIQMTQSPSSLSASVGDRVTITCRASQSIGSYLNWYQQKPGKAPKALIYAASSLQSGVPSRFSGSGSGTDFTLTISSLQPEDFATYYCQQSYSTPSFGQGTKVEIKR
# Assays:
# [1] = molecular target: T1, human wild-type LFA-1 on cells (human, UniProt P20701 26-1170; P05107 23-769); experiment: inhibition of ICAM binding to human PBMCs; average of four experiments
# T1 construct: also called LFA-1 on human PBMCs
# T1 sequence (P20701 other isoform, or with tags, fused parts or gaps limits assumed, chain 1 of 2): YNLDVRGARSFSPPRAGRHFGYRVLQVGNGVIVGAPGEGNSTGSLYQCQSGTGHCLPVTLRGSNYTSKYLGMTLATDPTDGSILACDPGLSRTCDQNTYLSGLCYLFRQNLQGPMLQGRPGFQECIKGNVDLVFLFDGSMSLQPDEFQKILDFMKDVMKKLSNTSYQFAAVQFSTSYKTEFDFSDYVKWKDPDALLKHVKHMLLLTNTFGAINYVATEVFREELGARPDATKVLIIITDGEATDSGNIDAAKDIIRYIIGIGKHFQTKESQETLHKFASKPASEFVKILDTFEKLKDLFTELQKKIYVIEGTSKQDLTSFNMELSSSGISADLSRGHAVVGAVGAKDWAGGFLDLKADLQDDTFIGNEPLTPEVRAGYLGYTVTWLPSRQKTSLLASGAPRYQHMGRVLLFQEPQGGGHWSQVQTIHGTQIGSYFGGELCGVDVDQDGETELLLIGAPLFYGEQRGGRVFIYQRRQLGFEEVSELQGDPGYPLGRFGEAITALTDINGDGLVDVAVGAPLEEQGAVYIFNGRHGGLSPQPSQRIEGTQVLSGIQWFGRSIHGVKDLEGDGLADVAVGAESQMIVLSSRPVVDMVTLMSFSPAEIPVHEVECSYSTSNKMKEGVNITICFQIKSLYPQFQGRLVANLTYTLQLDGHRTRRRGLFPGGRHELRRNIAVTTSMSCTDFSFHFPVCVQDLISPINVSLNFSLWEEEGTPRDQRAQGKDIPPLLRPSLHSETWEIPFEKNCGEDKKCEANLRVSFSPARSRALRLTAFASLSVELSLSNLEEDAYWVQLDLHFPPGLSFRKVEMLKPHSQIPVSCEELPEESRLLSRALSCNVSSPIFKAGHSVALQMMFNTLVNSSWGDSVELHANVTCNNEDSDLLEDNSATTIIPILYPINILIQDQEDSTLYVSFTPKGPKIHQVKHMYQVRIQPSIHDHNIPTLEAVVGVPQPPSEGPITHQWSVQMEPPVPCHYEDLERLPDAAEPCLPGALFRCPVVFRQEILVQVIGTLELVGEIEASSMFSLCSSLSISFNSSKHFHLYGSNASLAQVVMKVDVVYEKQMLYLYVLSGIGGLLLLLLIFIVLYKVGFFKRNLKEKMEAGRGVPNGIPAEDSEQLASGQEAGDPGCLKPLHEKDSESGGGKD
# T1 sequence (P05107 other isoform, or with tags, fused parts or gaps limits assumed, chain 2 of 2): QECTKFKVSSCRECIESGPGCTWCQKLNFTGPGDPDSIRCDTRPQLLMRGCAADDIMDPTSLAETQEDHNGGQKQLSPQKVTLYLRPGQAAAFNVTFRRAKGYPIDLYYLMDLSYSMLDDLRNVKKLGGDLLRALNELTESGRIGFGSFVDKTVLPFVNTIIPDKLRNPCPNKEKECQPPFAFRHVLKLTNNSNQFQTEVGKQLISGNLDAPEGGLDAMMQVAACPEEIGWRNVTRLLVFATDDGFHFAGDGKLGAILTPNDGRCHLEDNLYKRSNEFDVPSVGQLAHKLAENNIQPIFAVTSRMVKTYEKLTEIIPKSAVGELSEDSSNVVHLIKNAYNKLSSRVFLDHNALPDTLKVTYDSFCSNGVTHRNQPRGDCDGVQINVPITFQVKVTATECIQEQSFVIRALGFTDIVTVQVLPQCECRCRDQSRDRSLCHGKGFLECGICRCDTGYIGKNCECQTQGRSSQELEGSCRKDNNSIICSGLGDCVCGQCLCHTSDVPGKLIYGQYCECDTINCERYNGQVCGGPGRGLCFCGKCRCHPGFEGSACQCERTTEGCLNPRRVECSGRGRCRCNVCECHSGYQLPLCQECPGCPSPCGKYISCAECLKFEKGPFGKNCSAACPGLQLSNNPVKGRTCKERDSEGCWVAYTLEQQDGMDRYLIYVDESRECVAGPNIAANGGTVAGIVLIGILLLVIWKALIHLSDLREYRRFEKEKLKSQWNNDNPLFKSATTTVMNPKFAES
# [2] = molecular target: T2, rabbit LFA-1 on PBMCs (rabbit, UniProt A0A5F9C4C9 27-1127; A0A5F9CF43 23-747); experiment: flow cytometry on PBMCs, no treatment
# T2 construct: whole, on cells; also called rabbit PBMCs
# Protocol: Whole blood from healthy animals (rat, sheep, rabbit, dog, rhesus monkey, cynomologus monkey and chimpanzee) were obtained from Valley Biomedical Products and Services, Inc. PBMCs were isolated from whole blood and cultured in low adherent 6-well plates overnight in RPMI 1640 with 10% FBS, 1× Pen/Strep. PBMCs were harvested, washed once with Hanks' Balanced Salt Solution (HBSS) 1×, 20 mM HEPES buffer containing 10 mM EDTA, and then twice with HBS. Cells were resuspended in HBSS at 2×10⁶ cells/ml, 100 μl aliquots per well were added into 96-well plates (Costar round bottom). After spinning down, cell pellets were resuspended in 50 μl activating buffer (HBSS, 10 mM MgCl₂, 2 mM EGTA) or inactivating buffer (HBSS, 2 mM CaCl₂, 2 mM MgCl₂). For certain wells, PMA or DTT was added to a final concentration of 10 ng/ml or 500 μM, respectively. Cells were then incubated at 37° C. for 20 minutes.
# Antibodies that recognized CD-11a from the particular species (human, sheep, dog, rat, rabbit) (1:100 dilution) were used as positive controls. […] Cells were incubated at 4° C. for 30 minutes, then washed twice with 220 μl/well HBSS containing 0.05% NaN₃, resuspended in 200 μl/well HBSS and analyzed using the GUAVA EXPRESS™ protocol (Guava Technologies, Inc., Hayward Calif.).
# [3] = molecular target: T3, mouse LFA-1 on the EL4 cell line (mouse, UniProt P24063 24-1162; P11835 24-771); experiment: binding to EL4 cell line, no treatment
# T3 construct: whole, on cells; also called Mouse EL4 Cell line
# T3 sequence (P24063 24-1162, chain 1 of 2): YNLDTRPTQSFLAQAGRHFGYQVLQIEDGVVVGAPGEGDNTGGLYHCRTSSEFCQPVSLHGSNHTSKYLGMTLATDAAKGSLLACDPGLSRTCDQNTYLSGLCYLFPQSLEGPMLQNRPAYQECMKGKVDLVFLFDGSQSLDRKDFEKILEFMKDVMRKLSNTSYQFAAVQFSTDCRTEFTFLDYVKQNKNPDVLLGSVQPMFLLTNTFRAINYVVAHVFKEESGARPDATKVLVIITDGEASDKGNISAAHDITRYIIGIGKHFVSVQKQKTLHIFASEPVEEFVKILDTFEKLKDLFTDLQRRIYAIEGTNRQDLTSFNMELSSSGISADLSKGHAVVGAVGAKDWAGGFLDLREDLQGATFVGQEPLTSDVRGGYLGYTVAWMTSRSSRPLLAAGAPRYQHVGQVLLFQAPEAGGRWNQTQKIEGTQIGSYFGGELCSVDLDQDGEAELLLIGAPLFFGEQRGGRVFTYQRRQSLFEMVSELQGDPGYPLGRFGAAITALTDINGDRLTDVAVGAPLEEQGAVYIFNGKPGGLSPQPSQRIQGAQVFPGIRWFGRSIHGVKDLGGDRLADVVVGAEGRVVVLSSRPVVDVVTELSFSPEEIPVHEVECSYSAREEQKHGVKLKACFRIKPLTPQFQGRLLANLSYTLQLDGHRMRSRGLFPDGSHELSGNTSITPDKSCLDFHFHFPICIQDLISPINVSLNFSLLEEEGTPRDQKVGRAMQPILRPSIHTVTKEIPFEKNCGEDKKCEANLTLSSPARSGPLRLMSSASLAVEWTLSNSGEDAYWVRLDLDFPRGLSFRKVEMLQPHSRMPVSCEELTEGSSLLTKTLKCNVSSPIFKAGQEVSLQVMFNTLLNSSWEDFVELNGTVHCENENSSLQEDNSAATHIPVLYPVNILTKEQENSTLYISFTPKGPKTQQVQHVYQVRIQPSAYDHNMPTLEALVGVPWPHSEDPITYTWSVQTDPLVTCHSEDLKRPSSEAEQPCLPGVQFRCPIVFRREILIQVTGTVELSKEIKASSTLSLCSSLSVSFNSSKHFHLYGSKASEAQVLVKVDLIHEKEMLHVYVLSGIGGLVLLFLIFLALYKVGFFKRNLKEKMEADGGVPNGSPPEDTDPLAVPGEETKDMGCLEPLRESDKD
# T3 sequence (P11835 24-771, chain 2 of 2): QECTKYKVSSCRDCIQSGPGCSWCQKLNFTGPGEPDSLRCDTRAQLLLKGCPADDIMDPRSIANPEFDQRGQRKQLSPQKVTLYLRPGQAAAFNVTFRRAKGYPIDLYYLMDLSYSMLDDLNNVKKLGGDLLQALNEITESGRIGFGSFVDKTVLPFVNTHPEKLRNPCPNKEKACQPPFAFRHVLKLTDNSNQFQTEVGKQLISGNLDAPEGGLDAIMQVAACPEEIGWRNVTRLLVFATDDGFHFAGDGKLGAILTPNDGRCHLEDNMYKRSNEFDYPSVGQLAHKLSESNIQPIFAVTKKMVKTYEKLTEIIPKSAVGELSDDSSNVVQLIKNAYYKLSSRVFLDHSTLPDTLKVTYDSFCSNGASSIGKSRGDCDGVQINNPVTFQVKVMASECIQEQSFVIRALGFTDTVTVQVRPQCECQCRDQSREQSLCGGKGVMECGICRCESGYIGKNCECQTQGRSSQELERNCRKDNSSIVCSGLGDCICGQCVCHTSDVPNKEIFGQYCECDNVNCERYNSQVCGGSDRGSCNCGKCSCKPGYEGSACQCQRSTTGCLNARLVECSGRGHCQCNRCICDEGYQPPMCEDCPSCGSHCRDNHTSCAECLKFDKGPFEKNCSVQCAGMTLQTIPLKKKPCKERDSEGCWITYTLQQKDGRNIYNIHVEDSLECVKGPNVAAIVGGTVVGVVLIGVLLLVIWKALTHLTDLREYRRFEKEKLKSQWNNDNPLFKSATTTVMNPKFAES
Binder,IC50 [1],binding result [2],binding result [3]
B1,540 pM,–,–
B2,–,no binding (tested: 10 µg/ml),no binding

# — patent US20080069777A1 (CBR INSTITUTE FOR BIOMEDICAL RESEARCH, published 2008)
